In US5703220, “Genes encoding melanocertin-4 receptor and methods of use” (The Regents Of The University Of Michigan, dated 1997):
No end group written: not given here.

T1: mouse melanocortin-5 (mMC5) receptor (mouse)
T1 chain: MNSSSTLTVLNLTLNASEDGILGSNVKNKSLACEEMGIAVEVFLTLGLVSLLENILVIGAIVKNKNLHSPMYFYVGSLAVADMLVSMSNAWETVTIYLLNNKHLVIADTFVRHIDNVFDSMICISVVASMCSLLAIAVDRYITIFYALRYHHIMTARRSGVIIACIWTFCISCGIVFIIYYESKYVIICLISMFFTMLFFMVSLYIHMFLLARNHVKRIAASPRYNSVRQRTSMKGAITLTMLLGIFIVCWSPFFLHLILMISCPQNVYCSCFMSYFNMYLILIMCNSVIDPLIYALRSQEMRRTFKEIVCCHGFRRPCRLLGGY

T2: human melanocortin-1 (MC1) receptor (human)
T2 chain: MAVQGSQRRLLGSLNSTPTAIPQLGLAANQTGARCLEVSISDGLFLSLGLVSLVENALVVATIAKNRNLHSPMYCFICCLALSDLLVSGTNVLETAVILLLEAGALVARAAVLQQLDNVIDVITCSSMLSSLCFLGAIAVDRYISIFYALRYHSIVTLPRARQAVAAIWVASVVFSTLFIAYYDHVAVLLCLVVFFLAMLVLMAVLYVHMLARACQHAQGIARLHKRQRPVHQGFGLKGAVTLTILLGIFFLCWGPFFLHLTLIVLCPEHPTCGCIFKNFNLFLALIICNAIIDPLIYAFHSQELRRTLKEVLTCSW


How the values were obtained:
[1] = target: T1, mouse melanocortin-5 (mMC5) receptor; test: competition with radio-iodinated NDP-MSH on L-cells transfected with the mMC5 receptor
[2] = target: human melanocortin-3 (MC3) receptor (human); test: cell-based or functional assay
human melanocortin-3 (MC3) receptor (human), sequence (chain, as listed by the source limits assumed): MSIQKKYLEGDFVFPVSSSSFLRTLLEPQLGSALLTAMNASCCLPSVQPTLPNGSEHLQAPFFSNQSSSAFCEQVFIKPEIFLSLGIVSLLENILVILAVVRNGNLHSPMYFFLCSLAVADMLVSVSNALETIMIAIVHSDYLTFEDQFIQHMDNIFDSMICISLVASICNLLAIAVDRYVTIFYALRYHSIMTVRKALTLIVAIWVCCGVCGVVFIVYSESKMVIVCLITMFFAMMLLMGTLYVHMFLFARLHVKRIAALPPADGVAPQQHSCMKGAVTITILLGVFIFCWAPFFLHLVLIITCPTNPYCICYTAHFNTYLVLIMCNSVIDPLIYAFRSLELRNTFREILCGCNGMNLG

[3] = target: T2, human melanocortin-1 (MC1) receptor; test: cell-based or functional assay
[4] = target: human melanocortin-4 (MC4) receptor (human); test: cell-based or functional assay
human melanocortin-4 (MC4) receptor (human), sequence (chain, as listed by the source): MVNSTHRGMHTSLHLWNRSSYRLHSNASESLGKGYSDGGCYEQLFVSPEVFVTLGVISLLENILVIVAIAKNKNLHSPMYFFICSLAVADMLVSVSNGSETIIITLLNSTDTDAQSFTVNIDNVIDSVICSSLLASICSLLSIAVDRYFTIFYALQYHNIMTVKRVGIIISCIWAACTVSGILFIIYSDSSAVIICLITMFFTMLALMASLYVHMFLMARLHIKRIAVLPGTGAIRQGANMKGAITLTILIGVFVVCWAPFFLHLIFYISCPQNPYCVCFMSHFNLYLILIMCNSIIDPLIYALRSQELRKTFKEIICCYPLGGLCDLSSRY

Row | fold greater binding affinity than ACTH (1-39) [1] [fold] | ED50 of cAMP generation in transfected L-cells [2] [nM] | ED50 of cAMP generation in transfected L-cells [3] [nM] | EC50 of cAMP increase in transfected L-cells [4] [nM] | binding result [1] | Binder
1 | ~10 | – | – | – | – | SYSMEHFRWGKPV [ACTH (1-13)]
2 | – | ~1 | ~1 | – | – | Ac-SYSMEHFRWGKPV (ends and bridges not checked) [α-MSH]
3 | – | ~1 | ~1 | 1 | binds | SYSMEHFRWGKPVGKKRRPVKVYPNGAEDESAEAFPLEF [human ACTH (1-39)]
